Assay results: patent US20230242601A1 (published 2023)

Biological target: FABP3 fused with a His-tag at the N-terminus
Assay: QCM

FABP3 fused with a His-tag at the N-terminus, sequence (chain, as listed by the source): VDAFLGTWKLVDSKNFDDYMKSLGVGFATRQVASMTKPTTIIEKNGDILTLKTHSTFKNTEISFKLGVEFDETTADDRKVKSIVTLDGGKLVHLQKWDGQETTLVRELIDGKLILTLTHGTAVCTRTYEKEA

Row | Kd [nM] | Binder
1 | 6.1 | EEGYQDYEPEA [SynP130-140 peptide]
2 | 7.7 | EEGYQDFEPEA [SynP130-140 Y136F]
3 | 6.3 | EEGYQDWEPEA [SynP130-140 Y136W]
4 | 6.2 | EEGWQDWEPEA [SynP130-140 Y133W/Y136W]
5 | 2.1 | EEGFQDFEPEA [SynP130-140 Y133F/Y136F]
6 | 6.1 | EEGFQDWEPEA [SynP130-140 Y133F/Y136W]
